Experiment: yeast display, Sf9 membrane polyspecificity reagent, FACS + sequencing; frameworks hold sequencing errors
How it was run: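 Sorting gates, low and high (top ~1%), were placed on anti-HA fluorescence to track expression and on streptavidin fluorescence to track reagent binding. A clone's polyreactivity label is taken from the gate it came out of. The reagent was 10% biotinylated, detergent-solubilized Sf9 membrane, applied for 1 hour at 4 °C to galactose-induced yeast display cells.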

Sequence: QVQLVESGVGLVQAGGSLRLSCAASGRIFGVYVMGWYRQAPGKERELVAGISPSGGSTYYADSVKGRFTISRDNAKNTVYLQMNSLKPEDTAVYYCAAVLRIRRPRYGYWGQGTQVTVSS
- polyreactivity (PSR sort gate): high polyreactivity

Sequence: QVQLVESGVGLVQAGGSLRLSCAASGRIFRRYTMGWYRQPPGKERELVAAISASGGNTYYADSVKGRFTISRDNAKNTVYLQMNSLKPEDTAVYYCARRWRPWTQDGDDYWGQGTQVTVSS
- polyreactivity (PSR sort gate): high polyreactivity

Sequence: QVQLVESGVGLVQAGGSLRLSCAASGRIFTGYAMGWYRQAPGKERELVAAITSSGDGTNYADSVKGRFTISRDNAKNTVYLQMNSLKPEDTAVYYCNADGSYKMDWGQGTQVTVSS
- polyreactivity (PSR sort gate): low polyreactivity

Sequence: QVQLVESGVGLVQAGGSLRLSCAASGRIFYNNVRGWYRQAPGKERELVAGISGNGGSTYYPDSVKGRFTISRDNAKNTVYLQMNSPKPEDTAVYYCAARSSFRTLIFYQKFDYWGQGTQVTVSS
- polyreactivity (PSR sort gate): low polyreactivity

Sequence: QVQLVESGVGLVQAGGSLRLSCAASGRPFVAYAMGWYRQAPGTERELVARISSGGGTYADSVKGRFTISRDNAKNTVYLQMNSLKPEDTAVYYCATSLQRQFDYWGQGTQVTVSS
- polyreactivity (PSR sort gate): low polyreactivity

Sequence: QVQLVESGVGLVQAGGSLRLSCAASGRTFEPNAMGWYRHAPGKERELVAGITWSGGSTYYADSVKGRFTISRDNAKNTVYLQMNSLKPEDTAVYYCNAPITWKRSHYGYWGQGTQVTVSS
- polyreactivity (PSR sort gate): low polyreactivity

Sequence: QVQLVESGVGLVQAGGSLRLSCAASGRTFFGYAMGWYRQAPGKEREFVARISWRGTSTTYADSVKGRFTISRDNAKNTVYLQMNSLKPEDTAVYYCAASQYGLRVYFTVGYWGQGTQVTVSS
- polyreactivity (PSR sort gate): high polyreactivity

Sequence: QVQLVESGVGLVQAGGSLRLSCAASGRTFGVYAMGWYRQAPGKESTYYADSVKGRFTISRDNAKNTVYLQMNSLKPEDTAVYYCNARGGFGYITMDYWGQGTQVTVSS
- polyreactivity (PSR sort gate): low polyreactivity

Sequence: QVQLVESGVGLVQAGGSLRLSCAASGRTFISNVMGWYRQAPGKERELVAAISGSSGSTRYADSVKGRFTISRDNAKNTVYLQMISLKPEDTAVYYCAARAPWPKWGYYYWGQGTQVTVSS
- polyreactivity (PSR sort gate): high polyreactivity

Sequence: QVQLVESGVGLVQAGGSLRLSCAASGRTFSTNAMGWYIQAPGKERELVAAITSRGGSTYYADSVKGRFTISRDNAKNTVYLQMNSLKPEDTAVYYCAVDPLYSKTHYVTLGYYYWGQGTQVTVSS
- polyreactivity (PSR sort gate): low polyreactivity

Sequence: QVQLVESGVGLVQAGGSLRLSCAASGRTISYNARGWYRQAPGKEREFVADINYSAGSTYYADSVKGRFTISRDNAKNTGKLQMNRLKPEDTAVYYCAAKYYGEMYSWGQGTQVSVSS
- polyreactivity (PSR sort gate): low polyreactivity

Sequence: QVQLVESGVGLVQAGGSLRLSCAASGSIFDKNAMGWDRPAPGKERELVAAISRSGGSTYYADSVKGRFTISRDNAKNTVYLQMNSLKPEDTAVYYCNKYTNGRNFDYWGQGTQVTVSS
- polyreactivity (PSR sort gate): high polyreactivity

Sequence: QVQLVESGVGLVQAGGSLRLSCAASGSIFFKYAMGWYRQAPGKERELVAGITSTGRTYYADSVKGRFTISRDNAKNTVYLQMNSLKPEDTAVYYCNARTLPTYYRRYDYWGQGTQVTVSS
- polyreactivity (PSR sort gate): high polyreactivity

Sequence: QVQLVESGVGLVQAGGSLRLSCAASGSIFFPNAMGWYRQAPGKQRELVAAITSTSTNYAESVKGRCTISRDNAKNTVYLQMNSLKPEDTAVYYCAADGEFRRAWYEGDYWGQGTQVTVSS
- polyreactivity (PSR sort gate): low polyreactivity

Sequence: QVQLVESGVGLVQAGGSLRLSCAASGSIFSPNAMVWSRQAPGKERELVAAITWSGDSTYYADSVKGRFTISRDNAKNTVYLQINSLKREDTEVYYCAADFTYQGSSANDYWGQGSQVTVSS
- polyreactivity (PSR sort gate): low polyreactivity

Sequence: QVQLVESGVGLVQAGGSLRLSCAASGSIFWLYAMGWYRQAPGKERELVAAIDSGDSTKYADSVKGRFTISRDTAKNTVYLQMNSLKPEETAVYYSAKDYYYGLEHYGYWGQGTQVTVSS
- polyreactivity (PSR sort gate): low polyreactivity

Sequence: QVQLVESGVGLVQAGGSLRLSCAASGSTFANNAMGWYRQAPGKERELVAAISWSGGSTYYADSVKGRFTISRDNAKNTVYLQMNSLKPEDTAVYYCAADSPRYGGYGYWGQGTQVTLSS
- polyreactivity (PSR sort gate): low polyreactivity

Sequence: QVQLVESGVGLVQAGGSLRLSCAASGSTFDYYVMGWYRQAPGKVRELVAAISETGDDTYYADSVKGRFTLSRDNAKNTVYLQINRLNPEDTAVYYCAADSYFYSGFVRRFYFWGQGSQVTVSS
- polyreactivity (PSR sort gate): high polyreactivity

Sequence: QVQLVESGVGLVQAGGSLRLSCAASGSTFLTNVMGWYRQAPGKERELVAAITIGGSTNYADSVKGRFTISRDNAKNSVYLQMNSLKPEDTAVYYCATDIRRKPRYVDYEYWGQGTQVSVSS
- polyreactivity (PSR sort gate): low polyreactivity

Sequence: QVQLVESGVGLVQAGGSLRLSCAASGSTFRRNTMGWYRKAPGKERELVAAINYSGGSTYYADSVKGRFTISRDNAKNTVYLQMNSLKPEDTAVYYCAARYAYDFPYYYWGQGTQVTVSS
- polyreactivity (PSR sort gate): high polyreactivity

Sequence: QVQLVESGVGLVQAGGSLRLSCAASGSTFVWYAMGWYRQAPGKERELVAVIDWSGGSTSYADSVKGRFTISRDNAKNTVSFQMNSLKPEDTAVYYCAAQQGVISRGNYWGQGTQVTVSS
- polyreactivity (PSR sort gate): low polyreactivity

Sequence: QVQLVESGVGLVQAGGSLRLSCAASGSTFYKYTMGWYRQAPGKESELVSAISRSGGRTYYADSVKGRFTISRDNAKNTVYLQMNSLKPEDTAVYYCAVVTPRYYGDTKYDYWGQGTQVTVSS
- polyreactivity (PSR sort gate): high polyreactivity

Sequence: QVQLVESGVGLVQAGGSLRLSCAASGSTILQNAMGWYRQAPGKERELVAAISRSGGSTYYADSVKGRFTISRDNAKNTVYLQMNSLKPEDTAVYYCAAGGRRYDDDYWGQGTQVTVSS
- polyreactivity (PSR sort gate): high polyreactivity

Sequence: QVQLVESGVGLVQAGGSLRLSCAASGSTYRYAMGWYRQAPGKERELVAAISRSTGSTYYADSVKGRLTISRDNANNTVNLQMNRLKPEDTAVYYCARDVYYRGYKYGYWGQGTQVTVSS
- polyreactivity (PSR sort gate): high polyreactivity

Sequence: QVQLVESGVGLVQAGGSLRLSCAASVRIFLFYAMGGYRQAPVKERELVAAITSGGSTYYADSVKGRFTMSRDNAKNTVYLQMNSLKPEDTAVYYCANYYWGQGTQVTVSS
- polyreactivity (PSR sort gate): low polyreactivity

Sequence: QVQLVESGVGLVQAGGSLRLSCAASVSTFAYNAMGWYRQSPGKEREIVASISWSGGSTYYADSVKGRFTISRDNAKNSVYLQMNSLKPEDTAVYYCAADLNAYPQRAYDYWGQGTQVTVSS
- polyreactivity (PSR sort gate): low polyreactivity

Sequence: QVQLVESGVGLVQAGGSLRLSCAAYGYTFYRYAMGWYRQAPGKERELVAAINKSGGRTYYADSVKGRFTISRDNAKNTVYLQMNSLKPEDTAVYYCNTPFDYPDNPEYDYWGQGTQVTVSS
- polyreactivity (PSR sort gate): high polyreactivity

Sequence: QVQLVESGVGLVQAGGSLRLSCASSGLIFYDNMGWYRQAPGKERELVAAISSSGGSTSYADSVKGRFTISRDNAKNTVYLQMNSLKPEDTAVYYCAADYRRYGSYDYWGQGTQVTVSS
- polyreactivity (PSR sort gate): low polyreactivity

Sequence: QVQLVESGVGLVQAGGSLRLSCASSGRTFTPNGMGWYRQAPGKERELVAAITYGGGITDYADSVKGRFTISRDNAKNTVYLQMNRLNPEDTAVYYCAATTLSFEGGKYWSKYDYWGQGTQVTVSS
- polyreactivity (PSR sort gate): low polyreactivity

Sequence: QVQLVESGVGLVQAGGSLRLTCAASGSIFSVYAMGWYRPAPGKESELVAAITSSGGLTYYADSVKGRITISRDYAKNSVYLQMTSLIPEDTAVYYCATRGIPDDIARDYWGLGTQVTVSS
- polyreactivity (PSR sort gate): low polyreactivity

Sequence: QVQLVESGVGLVQAGGSLSLSCAASGITFPYVMGWYRQAPGKERELVAAISRTGTSTYYADSVKGRFTSSRDNAKNNVYLEMNTLKPEDTAVYYCAARTQTQVYPAYGYWGQGTQVTVSS
- polyreactivity (PSR sort gate): high polyreactivity

Sequence: QVQLVESGVGLVQAGGTLRLSCAASGSIFDWNVIGWYRQTPGKERELVASISESTDSTYYADSVKGRFTISRDNAKNTVYFQMNSLKPEDTAVYYCATAYPEWAVWGYDYWGQGTQVTLSS
- polyreactivity (PSR sort gate): low polyreactivity

Sequence: QVQLVESGVGLVQAGGTLRLSCAATGSIFWDYAMGWYRHAPGKERQLVASITSGGSTYYADSVKGRFTISRDNAMNTVYLQMNSLKPEETAVYYCAADGHTRHWGQTGRGAMYYWGQGTQVTVSS
- polyreactivity (PSR sort gate): low polyreactivity

Sequence: QVQLVESGVGLVQAGRSLSLICAASGSTFFLYGMGWYIQAPGKERDLVAAITWNGGSTYYADSVKGRFTISRDNAKNTVYLQMKSLKPEDTAVYYCAADYYGFFSTPYDYWGQGTQVSVSS
- polyreactivity (PSR sort gate): low polyreactivity

Sequence: QVQLVESGVGLVQARGSLRLSCAASGSIFKYYTRRWYRQAPGKERELVSGISYRGGSTYSADSVKGRFTISRDNAKNTVYLQMNSLKPEDTAVYYCYAFLLSGGDYWGQGSQVTVSS
- polyreactivity (PSR sort gate): high polyreactivity

Sequence: QVQLVESGVGLVQAVGSLRLSCAASGSTFPWYAMGWYRQAPGKERSLVAGSSEGGGSTYYADSVKGRFTISRDNAKNTVYLQMNRLKPEDTAVYYCAADQVGAVYWVGEYGYWGQGTQVTVAS
- polyreactivity (PSR sort gate): low polyreactivity

Sequence: QVQLVESGVGLVQPGGSLRLSSAASGSTSLVNAMRRYRQAPGKERELVAAITRGGNTYYADSVKGRFTISRDNAKNTVYLQMNSLKPEDTAVYYCAAEDHSELGQYDYWGQGTQVTVSS
- polyreactivity (PSR sort gate): low polyreactivity

Sequence: QVQLVESGVRLLQAGGSLRLSCAASGRIFGVYAMGWYITAPGKERELVAAIRGGGSTKYADSVKGRFTISRDNAKNTVYLQMKSLKPEDTAVYYFAARKLYYKHDYWGQGTQVTVSS
- polyreactivity (PSR sort gate): low polyreactivity

Sequence: QVQLVESGVRLVQAGGSLRLSCAASGFNFRRYAMGWYRPAPGKERELVAAISWRSGSTYYADSVKGRFTISRDNAKNTVYLQMNSLKPEDTAVYYCAAKDQATYQLNYWGQGTQVTVSS
- polyreactivity (PSR sort gate): high polyreactivity

Sequence: QVQLVESPGGLVQAGGSLRLSCAASGRTFYRNAMGWYRQAPGKERELVAVISLNGGRTYYADSVKGRFTISRDNAKNTVYLQMNSLKPEDTAVYYCNKLTGPVFTRGFYYWGQGTQVTVSS
- polyreactivity (PSR sort gate): high polyreactivity

Sequence: QVQLVESRAGLVQEGGSLRVSCAASGNILGTYAMGWYRQAPGKERELVAAISSSVGSTYYADSVKARFTISRDNAKNTVYLQINSLKPEDTAVYYCAPQPRVDYEFPYRYGYWGQGSQVTVSS
- polyreactivity (PSR sort gate): low polyreactivity

Sequence: QVQLVESRGALVQAGGSLRLSCAASGLILWVNAMGWNRQAPGKERELVAAISWSSGSTYYADSVKGRFTISRDNAKNTVYLQMNSLKPEASAVYYCAASVRRTGSICHYYYSGQGTQVTVSS
- polyreactivity (PSR sort gate): high polyreactivity

Sequence: QVQLVESRGCLVQAGVSLRLSCAASGSTFQSYAMGCYRQAPGKERELVAAISTSETDRTYYADSVKGRFTISRDNAKNTVYLQMISLKPEDTAVYYCNADGYSHGDWYGYWGQGTQVTVSS
- polyreactivity (PSR sort gate): low polyreactivity
